In patent publication US20220411483A1 (Chugai, published 2022):

T1: human FcγRIIa R type extracellular domain with C-terminal His tag (human, UniProt P12318 34-217)
T1 construct: extracellular domain; also called FcgRIIaR
T1 sequence (looked up): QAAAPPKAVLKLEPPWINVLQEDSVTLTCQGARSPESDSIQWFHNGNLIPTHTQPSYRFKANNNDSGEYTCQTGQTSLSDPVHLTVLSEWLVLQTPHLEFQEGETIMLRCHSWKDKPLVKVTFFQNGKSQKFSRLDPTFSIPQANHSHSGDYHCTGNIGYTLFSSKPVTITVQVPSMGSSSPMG

T2: human FcγRIIb extracellular domain with C-terminal His tag (human, UniProt P31994 43-217)
T2 construct: extracellular domain; also called FcgRIIb
T2 sequence (looked up): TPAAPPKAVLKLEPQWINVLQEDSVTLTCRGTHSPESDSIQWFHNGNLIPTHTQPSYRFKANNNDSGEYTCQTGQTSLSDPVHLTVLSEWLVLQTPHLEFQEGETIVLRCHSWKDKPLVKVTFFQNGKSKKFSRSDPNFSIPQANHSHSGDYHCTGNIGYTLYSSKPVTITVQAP

T3: human FcγRIIa H type extracellular domain with C-terminal His tag (human, UniProt P12318 34-217)
T3 construct: extracellular domain; also called FcgRIIaH
T3 sequence (looked up): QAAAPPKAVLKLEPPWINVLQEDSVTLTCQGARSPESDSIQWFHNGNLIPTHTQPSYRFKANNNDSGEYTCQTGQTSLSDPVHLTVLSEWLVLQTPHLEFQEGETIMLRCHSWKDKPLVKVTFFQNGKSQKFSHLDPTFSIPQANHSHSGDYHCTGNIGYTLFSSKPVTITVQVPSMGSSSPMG


Tests used:
[1] = target: T1, human FcγRIIa R type extracellular …; experiment: SPR, KD of IL6R-G1d/IL6R-L divided by KD of variant
[2] = target: T4, human FcγRIIIa V type extracellular domain with C-terminal His tag (human, UniProt P08637 17-208); experiment: as above
T4 construct: extracellular domain; also called FcgRIIIaV

[3] = target: T2, human FcγRIIb extracellular domain with …; experiment: as above
[4] = target: T3, human FcγRIIa H type extracellular …; experiment: as above
[5] = target: T5, human FcγRIa extracellular domain with C-terminal His tag (human, UniProt P12314 16-292); experiment: as above
T5 construct: Whole entry named; also called FcgRIa

[6] = target: T1, human FcγRIIa R type extracellular …; experiment: SPR, antibody captured, FcgR analyte
[7] = target: T2, human FcγRIIb extracellular domain with …; experiment: SPR, antibody captured, FcgR analyte
[8] = target: T5, human FcγRIa extracellular domain with …; experiment: SPR, antibody captured, FcgR analyte

T4 sequence (P08637 17-208 F176V): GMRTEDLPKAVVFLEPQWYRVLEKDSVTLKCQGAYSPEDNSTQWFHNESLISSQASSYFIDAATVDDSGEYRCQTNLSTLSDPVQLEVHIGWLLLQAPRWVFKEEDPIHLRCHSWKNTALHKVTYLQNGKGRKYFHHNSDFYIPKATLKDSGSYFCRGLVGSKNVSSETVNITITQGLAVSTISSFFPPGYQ
T5 sequence (P12314 16-292): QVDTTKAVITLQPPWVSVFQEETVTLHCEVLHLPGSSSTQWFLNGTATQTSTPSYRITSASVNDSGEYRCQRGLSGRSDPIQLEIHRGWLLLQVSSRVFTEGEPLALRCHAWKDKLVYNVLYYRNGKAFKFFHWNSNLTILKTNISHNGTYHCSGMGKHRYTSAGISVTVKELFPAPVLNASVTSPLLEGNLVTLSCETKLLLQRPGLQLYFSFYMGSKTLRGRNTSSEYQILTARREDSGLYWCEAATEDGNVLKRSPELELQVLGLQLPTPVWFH

| Binder | Relative FcgRIIaR-binding Activity [1] | Relative FcgRIIIaV-binding Activity [2] | Relative FcgRIIb-binding Activity [3] | Relative FcgRIIaH-binding Activity [4] | Relative FcgRIa-binding Activity [5] | Kd [6] | Kd [7] | Kd [8] |
| --- | --- | --- | --- | --- | --- | --- | --- | --- |
| IL6R-P761/IL6R-L (antibody, human IgG1, kappa) heavy: QVQLQESGPGLVKPSETLSLTCAVSGHSISHDHAWSWVRQPPGEGLEWIGFISYSGITNYNPSLQGRVTISRDNSKNTLYLQMNSLRAEDTAVYYCARSLARTTAMDYWGEGTLVTVSSASTKGPSVFPLAPSSKSTSGGTAALGCLVKDYFPEPVTVSWNSGALTSGVHTFPAVLQSSGLYSLSSVVTVPSSSLGTQTYICNVNHKPSNTKVDKKVEPKSCDKTHTCPPCPAPDLLGDDSVFLFPPKPKDTLMISRTPEVTCVVVDVSEEDGEVKFNWYVDGVEVHNAKTKPREEQYNSTYRVVSVLTVLHQDWLNGKEYKCKVSNKGLPSSIEKTISKAKGQPREPQVYTLPPSRDELTKNQVSLTCLVKGFYPSDIAVEWESNGQPENNYKTTPPVLDSDGSFFLYSKLTVDKSRWQQGNVFSCSVMHEALHNHYTQKSLSLSP light: not shown | 1 | 0.008 | 17.5 | 0.036 | 0.04 | 1100 nM | 120 nM | 8 nM |
| IL6R-P762/IL6R-L (antibody, human IgG1, kappa) heavy: QVQLQESGPGLVKPSETLSLTCAVSGHSISHDHAWSWVRQPPGEGLEWIGFISYSGITNYNPSLQGRVTISRDNSKNTLYLQMNSLRAEDTAVYYCARSLARTTAMDYWGEGTLVTVSSASTKGPSVFPLAPSSKSTSGGTAALGCLVKDYFPEPVTVSWNSGALTSGVHTFPAVLQSSGLYSLSSVVTVPSSSLGTQTYICNVNHKPSNTKVDKKVEPKSCDKTHTCPPCPAPELLGGDSVFLFPPKPKDTLMISRTPEVTCVVVDVSHEDGEVKFNWYVDGVEVHNAKTKPREEQYNSTYRVVSVLTVLHQDWLNGKEYKCKVSNKGLPSSIEKTISKAKGQPREPQVYTLPPSRDELTKNQVSLTCLVKGFYPSDIAVEWESNGQPENNYKTTPPVLDSDGSFFLYSKLTVDKSRWQQGNVFSCSVMHEALHNHYTQKSLSLSP light: not shown | 0.32 | 0.007 | 3.8 | 0.021 | 0.052 | 3400 nM | 550 nM | 6.1 nM |
| IL6R-P763/IL6R-L (antibody, human IgG1, kappa) heavy: QVQLQESGPGLVKPSETLSLTCAVSGHSISHDHAWSWVRQPPGEGLEWIGFISYSGITNYNPSLQGRVTISRDNSKNTLYLQMNSLRAEDTAVYYCARSLARTTAMDYWGEGTLVTVSSASTKGPSVFPLAPSSKSTSGGTAALGCLVKDYFPEPVTVSWNSGALTSGVHTFPAVLQSSGLYSLSSVVTVPSSSLGTQTYICNVNHKPSNTKVDKKVEPKSCDKTHTCPPCPAPELLGGDSVFLFPPKPKDTLMISRTPEVTCVVVDVAEEDGEVKFNWYVDGVEVHNAKTKPREEQYNSTYRVVSVLTVLHQDWLNGKEYKCKVSNKALPAPIEKTISKAKGQPREPQVYTLPPSRDELTKNQVSLTCLVKGFYPSDIAVEWESNGQPENNYKTTPPVLDSDGSFFLYSKLTVDKSRWQQGNVFSCSVMHEALHNHYTQKSLSLSP light: not shown | 0.69 | 0.014 | 21 | 0.034 | 0.438 | 1600 nM | 100 nM | 0.73 nM |
| IL6R-P765/IL6R-L (antibody, human IgG1, kappa) heavy: QVQLQESGPGLVKPSETLSLTCAVSGHSISHDHAWSWVRQPPGEGLEWIGFISYSGITNYNPSLQGRVTISRDNSKNTLYLQMNSLRAEDTAVYYCARSLARTTAMDYWGEGTLVTVSSASTKGPSVFPLAPSSKSTSGGTAALGCLVKDYFPEPVTVSWNSGALTSGVHTFPAVLQSSGLYSLSSVVTVPSSSLGTQTYICNVNHKPSNTKVDKKVEPKSCDKTHTCPPCPAPELLGGDSVFLFPPKPKDTLMISRTPEVTCVVIDVAHEDGEVKFNWYVDGVEVHNAKTKPREEQYNSTYRVVSVLTVLHQDWLNGKEYKCKVSNKALPAPIEKTISKAKGQPREPQVYTLPPSRDELTKNQVSLTCLVKGFYPSDIAVEWESNGQPENNYKTTPPVLDSDGSFFLYSKLTVDKSRWQQGNVFSCSVMHEALHNHYTQKSLSLSP light: not shown | 0.52 | 0.008 | 39.6 | 0.028 | 0.178 | 2100 nM | 53 nM | 1.8 nM |
| IL6R-P764/IL6R-L (antibody, human IgG1, kappa) heavy: QVQLQESGPGLVKPSETLSLTCAVSGHSISHDHAWSWVRQPPGEGLEWIGFISYSGITNYNPSLQGRVTISRDNSKNTLYLQMNSLRAEDTAVYYCARSLARTTAMDYWGEGTLVTVSSASTKGPSVFPLAPSSKSTSGGTAALGCLVKDYFPEPVTVSWNSGALTSGVHTFPAVLQSSGLYSLSSVVTVPSSSLGTQTYICNVNHKPSNTKVDKKVEPKSCDKTHTCPPCPAPELLGGDSVFLFPPKPKDTLMISRTPEVTCVVIDVSEEDGEVKFNWYVDGVEVHNAKTKPREEQYNSTYRVVSVLTVLHQDWLNGKEYKCKVSNKALPAPIEKTISKAKGQPREPQVYTLPPSRDELTKNQVSLTCLVKGFYPSDIAVEWESNGQPENNYKTTPPVLDSDGSFFLYSKLTVDKSRWQQGNVFSCSVMHEALHNHYTQKSLSLSP light: not shown | 0.52 | 0.006 | 42 | 0.026 | 0.086 | 2100 nM | 50 nM | 3.7 nM |

Next, values leading:

| Relative FcgRIIaR-binding Activity [1] | Relative FcgRIIIaV-binding Activity [2] | Relative FcgRIIb-binding Activity [3] | Relative FcgRIIaH-binding Activity [4] | Relative FcgRIa-binding Activity [5] | Kd [6] | Kd [7] | Kd [8] | Binder |
| --- | --- | --- | --- | --- | --- | --- | --- | --- |
| 0.39 | 0.008 | 12.4 | 0.027 | 0.097 | 2800 nM | 170 nM | 3.3 nM | IL6R-P768/IL6R-L (antibody, human IgG1, kappa) heavy: QVQLQESGPGLVKPSETLSLTCAVSGHSISHDHAWSWVRQPPGEGLEWIGFISYSGITNYNPSLQGRVTISRDNSKNTLYLQMNSLRAEDTAVYYCARSLARTTAMDYWGEGTLVTVSSASTKGPSVFPLAPSSKSTSGGTAALGCLVKDYFPEPVTVSWNSGALTSGVHTFPAVLQSSGLYSLSSVVTVPSSSLGTQTYICNVNHKPSNTKVDKKVEPKSCDKTHTCPPCPAPELLGGDSVFLFPPKPKDTLMISRTPEVTCVVIDVAHEDGEVKFNWYVDGVEVHNAKTKPREEQYNSTYRVVSVLTVLHQDWLNGKEYKCKVSNKGLPSSIEKTISKAKGQPREPQVYTLPPSRDELTKNQVSLTCLVKGFYPSDIAVEWESNGQPENNYKTTPPVLDSDGSFFLYSKLTVDKSRWQQGNVFSCSVMHEALHNHYTQKSLSLSP light: not shown |
| 0.5 | 0.008 | 7.2 | 0.025 | 0.33 | 2200 nM | 290 nM | 0.97 nM | IL6R-P766/IL6R-L (antibody, human IgG1, kappa) heavy: QVQLQESGPGLVKPSETLSLTCAVSGHSISHDHAWSWVRQPPGEGLEWIGFISYSGITNYNPSLQGRVTISRDNSKNTLYLQMNSLRAEDTAVYYCARSLARTTAMDYWGEGTLVTVSSASTKGPSVFPLAPSSKSTSGGTAALGCLVKDYFPEPVTVSWNSGALTSGVHTFPAVLQSSGLYSLSSVVTVPSSSLGTQTYICNVNHKPSNTKVDKKVEPKSCDKTHTCPPCPAPELLGGDSVFLFPPKPKDTLMISRTPEVTCVVVDVAEEDGEVKFNWYVDGVEVHNAKTKPREEQYNSTYRVVSVLTVLHQDWLNGKEYKCKVSNKGLPSSIEKTISKAKGQPREPQVYTLPPSRDELTKNQVSLTCLVKGFYPSDIAVEWESNGQPENNYKTTPPVLDSDGSFFLYSKLTVDKSRWQQGNVFSCSVMHEALHNHYTQKSLSLSP light: not shown |
| 0.39 | 0.005 | 17.5 | 0.02 | 0.059 | 2800 nM | 120 nM | 5.4 nM | IL6R-P767/IL6R-L (antibody, human IgG1, kappa) heavy: QVQLQESGPGLVKPSETLSLTCAVSGHSISHDHAWSWVRQPPGEGLEWIGFISYSGITNYNPSLQGRVTISRDNSKNTLYLQMNSLRAEDTAVYYCARSLARTTAMDYWGEGTLVTVSSASTKGPSVFPLAPSSKSTSGGTAALGCLVKDYFPEPVTVSWNSGALTSGVHTFPAVLQSSGLYSLSSVVTVPSSSLGTQTYICNVNHKPSNTKVDKKVEPKSCDKTHTCPPCPAPELLGGDSVFLFPPKPKDTLMISRTPEVTCVVIDVSEEDGEVKFNWYVDGVEVHNAKTKPREEQYNSTYRVVSVLTVLHQDWLNGKEYKCKVSNKGLPSSIEKTISKAKGQPREPQVYTLPPSRDELTKNQVSLTCLVKGFYPSDIAVEWESNGQPENNYKTTPPVLDSDGSFFLYSKLTVDKSRWQQGNVFSCSVMHEALHNHYTQKSLSLSP light: not shown |
